Assay results reported in US20250361274A1, “PEPTIDE AND PEPTIDE-CONTAINING AGENT” (PEPTIDREAM INC., priority 2022, published 2025).
Numbered stars: 1 amine (or outer) side, 2 acyl side, 3 side chain; on linkers, the order of the positions; unused ones are H or OH. Square brackets hold non-standard residues; d marks the D form. Ends that are not written are not given here. Bph3OMe = (S)-2-amino-3-(3'-methoxy-[1,1'-biphenyl]-4-yl)propanoic acid, COc1cccc(-c2ccc(C[C@H](N[*:1])C(=O)[*:2])cc2)c1; KCOpipzaa = N6-(4-(carboxymethyl)piperazine-1-carbonyl)-L-lysine, O=C(NCCCC[C@H](N[*:1])C(=O)[*:2])N1CCN(CC(=O)[*:3])CC1; Cha4tH = (S)-2-amino-3-((1r,4S)-4-hydroxycyclohexyl)propanoic acid, O=C([C@H](C[C@H]1CC[C@H](O[*:3])CC1)N[*:1])[*:2]; F4aao = (S)-2-amino-3-(4-(carboxymethoxy)phenyl)propanoic acid, O=C([C@H](Cc1ccc(OCC(=O)[*:3])cc1)N[*:1])[*:2]; 3Pal(6-Ph) = N[C@@H](Cc1ccc(-c2ccccc2)nc1)C(=O)O; Phe(4-COOH) = N[C@@H](Cc1ccc(C(=O)O)cc1)C(=O)O; Bip = N[C@@H](Cc1ccc(-c2ccccc2)cc1)C(=O)O; Abu(4,4,4-F3) = N[C@@H](CC(F)(F)F)C(=O)O; Ala(4-THP) = N[C@@H](CC1CCOCC1)C(=O)O; Gly(4-THP) = N[C@H](C(=O)O)C1CCOCC1; Hyp = O=C(O)[C@@H]1C[C@@H](O)CN1; 4Pal = N[C@@H](Cc1ccncc1)C(=O)O; Gly(cPr) = N[C@H](C(=O)O)C1CC1; βAla = NCCC(=O)O

Tests used:
BMP4 = biological target: T1, BMP4 (Homo sapiens, UniProt P12644); experiment: BMP4 signal transduction inhibitory activity: SMAD1 phosphorylation by BMP4 stimulus, AlphaLISA SureFire, A549 cells; assay type: cell-based; details: BMP4 0.2 nM stimulus; peptide conc. in assay 0.02, 0.2, 2 nM; class symbols
T1 sequence (P12644 293-408): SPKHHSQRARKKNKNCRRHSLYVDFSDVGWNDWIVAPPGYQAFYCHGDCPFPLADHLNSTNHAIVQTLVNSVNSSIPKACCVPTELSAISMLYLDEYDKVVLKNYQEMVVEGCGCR

BMP7 = biological target: T2, BMP7 (Homo sapiens, UniProt P18075); experiment: BMP7 signal transduction inhibitory activity: SMAD1 phosphorylation by BMP7 stimulus, A549 cells; assay type: cell-based; details: BMP7 10 nM stimulus, class symbols
T2 sequence (P18075 293-431): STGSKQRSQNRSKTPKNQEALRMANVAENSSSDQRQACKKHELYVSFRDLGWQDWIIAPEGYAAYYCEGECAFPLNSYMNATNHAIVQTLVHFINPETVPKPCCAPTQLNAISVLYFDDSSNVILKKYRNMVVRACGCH
Outline: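 Inhibition is read as reduced BMP7-driven SMAD1 phosphorylation in human A549 cells, with the BMP7 stimulus at 10 nM. Three-point peptide concentrations spanned 1–1,000 nM depending on the peptide series. Some peptides received eight-point, 1/3-ratio titrations from 100 nM or 1,000 nM, alongside a Noggin control.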

[1] = peptide conc. in assay 10, 100, 1000 nM
[2] = peptide conc. in assay 100, 300, 1000 nM

Row | Substance | aLIZA BMP4 (0.2 nM) % inh (BMP4) | aLIZA BMP7 (10 nM) % inh (BMP7; [1]) | aLIZA BMP7 (10 nM) % inh (BMP7; [2])
1 | 266 (QRVYVDR[3Pal(6-Ph)]SYV[Bip][4Pal][Phe(4-COOH)][Phe(4-COOH)]SCG-NH2; not fully specified) [compound 266] | C (showed less than 30% of inhibitory activity in 0.2 nM-addition zone and showed 30% or more of inhibitory activity in 2 nM-addition zone) | ND (the inhibitory activity was less than 30% at the maximum concentration evaluated) | 
2 | 270 (QRV[F4aao]VDR[3Pal(6-Ph)]SYV[Bip][4Pal][Phe(4-COOH)][Phe(4-COOH)]SCG-NH2; not fully specified) [compound 270] | C (showed less than 30% of inhibitory activity in 0.2 nM-addition zone and showed 30% or more of inhibitory activity in 2 nM-addition zone) | ND (the inhibitory activity was less than 30% at the maximum concentration evaluated) | 
3 | 271 (ERV[Phe(4-COOH)][Abu(4,4,4-F3)]DR[3Pal(6-Ph)]SYV[Bip][4Pal][Phe(4-COOH)][Phe(4-COOH)]SCG-NH2) [compound 271] | C (showed less than 30% of inhibitory activity in 0.2 nM-addition zone and showed 30% or more of inhibitory activity in 2 nM-addition zone) | ND (the inhibitory activity was less than 30% at the maximum concentration evaluated) | 
4 | 272 (ERV[Phe(4-COOH)][Gly(cPr)]DR[3Pal(6-Ph)]SYV[Bip][4Pal][Phe(4-COOH)][Phe(4-COOH)]SCG-NH2; not fully specified (N-terminus, bridges)) [compound 272] | C (showed less than 30% of inhibitory activity in 0.2 nM-addition zone and showed 30% or more of inhibitory activity in 2 nM-addition zone) | ND (the inhibitory activity was less than 30% at the maximum concentration evaluated) | 
5 | 273 (ERV[Phe(4-COOH)]VDR[3Pal(6-Ph)][KCOpipzaa]YV[Bip][4Pal][Phe(4-COOH)][Phe(4-COOH)]SCG-NH2; not fully specified) [compound 273] | C (showed less than 30% of inhibitory activity in 0.2 nM-addition zone and showed 30% or more of inhibitory activity in 2 nM-addition zone) | ND (the inhibitory activity was less than 30% at the maximum concentration evaluated) | 
6 | 275 (ERV[Phe(4-COOH)]VDR[3Pal(6-Ph)][KCOpipzaa]Y[Hyp][Bip]Y[Phe(4-COOH)][Phe(4-COOH)]SCG-NH2; not fully specified) [compound 275] | B (showed less than 30% of inhibitory activity in 0.02 nM-addition zone and showed 30% or more of inhibitory activity in 0.2 nM-addition zone) |  | G (showed less than 30% of inhibitory activity in 100 nM-addition zone and showed 30% or more of inhibitory activity in 300 nM-addition zone)
7 | 276 (ERV[Phe(4-COOH)]V[KCOpipzaa]R[3Pal(6-Ph)][KCOpipzaa]Y[Hyp][Bip][4Pal][Phe(4-COOH)][Phe(4-COOH)]SCG-NH2; not fully specified) [compound 276] | B (showed less than 30% of inhibitory activity in 0.02 nM-addition zone and showed 30% or more of inhibitory activity in 0.2 nM-addition zone) |  | ND (the inhibitory activity was less than 30% at the maximum concentration evaluated)
8 | 278 (E[KCOpipzaa]V[Phe(4-COOH)]V[KCOpipzaa]R[3Pal(6-Ph)][KCOpipzaa]Y[Hyp][Bip][4Pal][Phe(4-COOH)][Phe(4-COOH)]SCG-NH2; not fully specified) [compound 278] | C (showed less than 30% of inhibitory activity in 0.2 nM-addition zone and showed 30% or more of inhibitory activity in 2 nM-addition zone) |  | ND (the inhibitory activity was less than 30% at the maximum concentration evaluated)
9 | 280 (ERV[Phe(4-COOH)]VDR[3Pal(6-Ph)][KCOpipzaa]Y[Hyp][Bip][4Pal][Phe(4-COOH)][Phe(4-COOH)]SC[βAla]) [compound 280] | B (showed less than 30% of inhibitory activity in 0.02 nM-addition zone and showed 30% or more of inhibitory activity in 0.2 nM-addition zone) |  | H (showed less than 30% of inhibitory activity in 300 nM-addition zone and showed 30% or more of inhibitory activity in 1,000 nM-addition zone)
10 | 281 (ERV[Phe(4-COOH)]VDR[3Pal(6-Ph)][KCOpipzaa]YV[Bip][4Pal][Phe(4-COOH)][Phe(4-COOH)]SC[βAla]) [compound 281] | C (showed less than 30% of inhibitory activity in 0.2 nM-addition zone and showed 30% or more of inhibitory activity in 2 nM-addition zone) |  | ND (the inhibitory activity was less than 30% at the maximum concentration evaluated)
11 | 283 (ERV[Phe(4-COOH)]V[KCOpipzaa]R[3Pal(6-Ph)][KCOpipzaa]Y[Hyp][Bip][4Pal][Phe(4-COOH)][Phe(4-COOH)]SC[βAla]) [compound 283] | B (showed less than 30% of inhibitory activity in 0.02 nM-addition zone and showed 30% or more of inhibitory activity in 0.2 nM-addition zone) |  | H (showed less than 30% of inhibitory activity in 300 nM-addition zone and showed 30% or more of inhibitory activity in 1,000 nM-addition zone)
12 | 284 (ERV[Phe(4-COOH)]V[KCOpipzaa]R[3Pal(6-Ph)][KCOpipzaa]YV[Bip][4Pal][Phe(4-COOH)][Phe(4-COOH)]SC[βAla]) [compound 284] | C (showed less than 30% of inhibitory activity in 0.2 nM-addition zone and showed 30% or more of inhibitory activity in 2 nM-addition zone) |  | ND (the inhibitory activity was less than 30% at the maximum concentration evaluated)
13 | 285 (E[KCOpipzaa]V[Phe(4-COOH)]V[KCOpipzaa]R[3Pal(6-Ph)][KCOpipzaa]Y[Hyp][Bip][4Pal][Phe(4-COOH)][Phe(4-COOH)]SC[βAla]) [compound 285] | C (showed less than 30% of inhibitory activity in 0.2 nM-addition zone and showed 30% or more of inhibitory activity in 2 nM-addition zone) |  | H (showed less than 30% of inhibitory activity in 300 nM-addition zone and showed 30% or more of inhibitory activity in 1,000 nM-addition zone)
14 | 286 (ERV[Phe(4-COOH)]VDR[3Pal(6-Ph)][KCOpipzaa]Y[Hyp][Bip][4Pal][Phe(4-COOH)][Phe(4-COOH)]SC[βAla][dE]-OH; not fully specified (N-terminus, bridges); also: cyclic peptide, ring not given here) [compound 286] | B (showed less than 30% of inhibitory activity in 0.02 nM-addition zone and showed 30% or more of inhibitory activity in 0.2 nM-addition zone) |  | G (showed less than 30% of inhibitory activity in 100 nM-addition zone and showed 30% or more of inhibitory activity in 300 nM-addition zone)
15 | 287 (ERV[Phe(4-COOH)][Ala(4-THP)][KCOpipzaa]R[3Pal(6-Ph)][KCOpipzaa]Y[Hyp][Bip][4Pal][Phe(4-COOH)][Phe(4-COOH)]SCG-NH2; not fully specified (N-terminus, bridges); also: cyclic peptide, ring not given here) [compound 287] | C (showed less than 30% of inhibitory activity in 0.2 nM-addition zone and showed 30% or more of inhibitory activity in 2 nM-addition zone) |  | H (showed less than 30% of inhibitory activity in 300 nM-addition zone and showed 30% or more of inhibitory activity in 1,000 nM-addition zone)
16 | 288 (ERV[Phe(4-COOH)][Cha4tH][KCOpipzaa]R[3Pal(6-Ph)][KCOpipzaa]Y[Hyp][Bip][4Pal][Phe(4-COOH)][Phe(4-COOH)]SCG-NH2; not fully specified (N-terminus, bridges); also: cyclic peptide, ring not given here) [compound 288] | B (showed less than 30% of inhibitory activity in 0.02 nM-addition zone and showed 30% or more of inhibitory activity in 0.2 nM-addition zone) |  | F (showed 30% or more of inhibitory activity in 100 nM-addition zone)
17 | 289 (ERV[Phe(4-COOH)][Gly(4-THP)][KCOpipzaa]R[3Pal(6-Ph)][KCOpipzaa]Y[Hyp][Bip][4Pal][Phe(4-COOH)][Phe(4-COOH)]SCG-NH2; not fully specified (N-terminus, bridges); also: cyclic peptide, ring not given here) [compound 289] | C (showed less than 30% of inhibitory activity in 0.2 nM-addition zone and showed 30% or more of inhibitory activity in 2 nM-addition zone) |  | ND (the inhibitory activity was less than 30% at the maximum concentration evaluated)
18 | 294 (ERV[Phe(4-COOH)][Cha4tH][KCOpipzaa]R[3Pal(6-Ph)][KCOpipzaa]Y[Hyp][Bip]Y[Phe(4-COOH)][Phe(4-COOH)]SCG-NH2; not fully specified) [compound 294] | B (showed less than 30% of inhibitory activity in 0.02 nM-addition zone and showed 30% or more of inhibitory activity in 0.2 nM-addition zone) |  | F (showed 30% or more of inhibitory activity in 100 nM-addition zone)
19 | 296 (ERV[Phe(4-COOH)]V[KCOpipzaa]R[3Pal(6-Ph)][KCOpipzaa]Y[Hyp][Bph3OMe]Y[Phe(4-COOH)][Phe(4-COOH)]SCG-NH2; not fully specified (N-terminus, bridges); also: cyclic peptide, ring not given here) [compound 296] | B (showed less than 30% of inhibitory activity in 0.02 nM-addition zone and showed 30% or more of inhibitory activity in 0.2 nM-addition zone) |  | ND (the inhibitory activity was less than 30% at the maximum concentration evaluated)
